# Data: IntAct's records for PubMed 12097473
# B1: Kinesin-like protein KIF1B (Homo sapiens), O60333-3 (parent)
# chain: MSGASVKVAVRVRPFNSRETSKESKCIIQMQGNSTSIINPKNPKEAPKSFSFDYSYWSHTSPEDPCFASQNRVYNDIGKEMLLHAFEGYNVCIFAYGQTGAGKSYTMMGKQEESQAGIIPQLCEELFEKINDNCNEEMSYSVEVSYMEIYCERVRDLLNPKNKGNLRVREHPLLGPYVEDLSKLAVTSYTDIADLMDAGNKARTVAATNMNETSSRSHAVFTIVFTQKKHDNETNLSTEKVSKISLVDLAGSERADSTGAKGTRLKEGANINKSLTTLGKVISALAEVSKKKKKTDFIPYRDSVLTWLLRENLGGNSRTAMVAALSPADINYDETLSTLRYADRAKQIKCNAVINEDPNAKLVRELKEEVTRLKDLLRAQGLGDIIDTSMGSLTSSPSSCSLSSQVGLTSVTSIQERIMSTPGGEEAIERLKESEKIIAELNETWEEKLRKTEAIRMEREALLAEMGVAIREDGGTLGVFSPKKTPHLVNLNEDPLMSECLLYYIKDGITRVGQADAERRQDIVLSGAHIKEEHCIFRSERSNSGEVIVTLEPCERSETYVNGKRVSQPVQLRSGNRIIMGKNHVFRFNHPEQARAEREKTPSAETPSEPVDWTFAQRELLEKQGIDMKQEMEKRLQEMEILYKKEKEEADLLLEQQRLDADSDSGDDSDKRSCEESWKLITSLREKLPPSKLQTIVKKCGLPSSGKKREPIKMYQIPQRRRLSKDSKWVTISDLKIQAVKEICYEVALNDFRHSRQEIEALAIVKMKELCAMYGKKDPNERDSWRAVARDVWDTVGVGDEKIEDVMATGKGSTDVDDLKVHIDKLEDILQEVKKQNNMKDEEIKVLRNKMLKMEKVLPLIGSQEQKSPGSHKAKEPVGAGVSSTSENNVSKGDNGELAKEERVSQLMNGDPAFRRGRLRWMRQEQIRFKNLQQQEITKQLRRQNVPHRFIPPENRKPRFPFKSNPKHRNSWSPGTHIIITEDEVIELRIPKDDEARKGNKEESQEKGGKGAFKDPQFPWGSQGMRSQDHIQVSKQHINNQQQPPQLRWRSNSLNNGQPKSTRCQASASAESLNSHSGHPTADVQTFQAKRHIHQHRQSYCNYNTGGQLEGNAATSYQKQTDKPSHCSQFVTPPRMRRQFSAPNLKAGRETTV
# Variants of: B1
# Details: with dlg1_rat Dlg1, Q62696
# Sequence of dlg1_rat Dlg1, Q62696 (Q62696 whole entry): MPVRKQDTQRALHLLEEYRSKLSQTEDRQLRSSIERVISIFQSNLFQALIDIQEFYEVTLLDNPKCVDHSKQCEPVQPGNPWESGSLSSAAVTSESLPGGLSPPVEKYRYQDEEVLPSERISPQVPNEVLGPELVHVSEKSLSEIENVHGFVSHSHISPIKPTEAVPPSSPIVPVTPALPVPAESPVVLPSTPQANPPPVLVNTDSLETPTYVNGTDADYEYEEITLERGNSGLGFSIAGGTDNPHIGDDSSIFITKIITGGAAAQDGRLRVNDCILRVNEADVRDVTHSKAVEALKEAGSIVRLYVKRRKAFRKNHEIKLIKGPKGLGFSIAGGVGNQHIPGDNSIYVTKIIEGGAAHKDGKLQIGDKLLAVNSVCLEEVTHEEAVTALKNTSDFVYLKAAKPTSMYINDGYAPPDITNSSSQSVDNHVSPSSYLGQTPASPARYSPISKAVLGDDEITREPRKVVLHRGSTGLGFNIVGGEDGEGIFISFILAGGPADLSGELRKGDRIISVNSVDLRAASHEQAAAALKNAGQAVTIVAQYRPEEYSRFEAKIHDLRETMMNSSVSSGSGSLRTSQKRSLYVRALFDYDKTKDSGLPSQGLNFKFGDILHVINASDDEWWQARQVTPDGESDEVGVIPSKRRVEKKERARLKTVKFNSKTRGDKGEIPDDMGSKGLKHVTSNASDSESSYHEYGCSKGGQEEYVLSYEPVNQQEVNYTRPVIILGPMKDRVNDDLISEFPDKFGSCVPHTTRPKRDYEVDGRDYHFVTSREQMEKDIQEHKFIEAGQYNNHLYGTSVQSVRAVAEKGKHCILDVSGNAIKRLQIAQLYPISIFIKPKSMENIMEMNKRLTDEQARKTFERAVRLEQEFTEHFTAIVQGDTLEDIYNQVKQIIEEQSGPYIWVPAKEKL
row,effect of a mutation on the interaction,Variant
1,decreasing interaction,V1153A

# Variants of: B1
# Details: with magi2_rat Magi2, O88382
# Sequence of magi2_rat Magi2, O88382 (O88382 whole entry): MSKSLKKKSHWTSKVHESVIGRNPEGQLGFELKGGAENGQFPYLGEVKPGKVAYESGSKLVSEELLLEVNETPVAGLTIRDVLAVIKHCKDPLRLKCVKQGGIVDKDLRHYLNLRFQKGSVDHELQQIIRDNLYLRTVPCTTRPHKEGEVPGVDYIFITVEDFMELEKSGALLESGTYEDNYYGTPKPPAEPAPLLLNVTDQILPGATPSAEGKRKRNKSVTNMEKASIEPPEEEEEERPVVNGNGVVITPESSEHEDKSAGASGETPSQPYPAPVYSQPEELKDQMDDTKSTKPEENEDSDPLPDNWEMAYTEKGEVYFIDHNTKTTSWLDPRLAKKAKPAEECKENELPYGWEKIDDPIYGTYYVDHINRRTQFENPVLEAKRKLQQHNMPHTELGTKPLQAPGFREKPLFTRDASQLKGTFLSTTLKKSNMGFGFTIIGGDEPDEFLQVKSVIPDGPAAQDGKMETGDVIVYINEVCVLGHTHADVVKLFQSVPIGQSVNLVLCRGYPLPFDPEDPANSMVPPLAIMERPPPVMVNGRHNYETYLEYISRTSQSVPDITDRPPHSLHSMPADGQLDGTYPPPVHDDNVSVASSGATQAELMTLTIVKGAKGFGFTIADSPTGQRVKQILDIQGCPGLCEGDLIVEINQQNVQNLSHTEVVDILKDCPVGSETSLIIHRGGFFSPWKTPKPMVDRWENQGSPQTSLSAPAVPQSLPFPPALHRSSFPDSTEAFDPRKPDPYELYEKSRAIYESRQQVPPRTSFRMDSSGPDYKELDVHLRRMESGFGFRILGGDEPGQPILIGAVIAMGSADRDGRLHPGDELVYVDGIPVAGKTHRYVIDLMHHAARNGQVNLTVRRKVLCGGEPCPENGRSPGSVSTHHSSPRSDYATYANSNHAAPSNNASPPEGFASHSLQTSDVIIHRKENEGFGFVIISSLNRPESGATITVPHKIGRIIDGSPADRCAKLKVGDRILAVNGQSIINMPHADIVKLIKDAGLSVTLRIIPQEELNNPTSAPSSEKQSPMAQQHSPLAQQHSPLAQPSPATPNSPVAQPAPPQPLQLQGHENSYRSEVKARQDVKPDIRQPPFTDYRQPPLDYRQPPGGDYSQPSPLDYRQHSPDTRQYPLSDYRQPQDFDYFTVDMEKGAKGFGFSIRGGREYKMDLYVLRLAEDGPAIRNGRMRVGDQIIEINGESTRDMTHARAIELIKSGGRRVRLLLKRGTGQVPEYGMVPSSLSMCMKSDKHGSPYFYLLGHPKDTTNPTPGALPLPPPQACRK
row,effect of a mutation on the interaction,Variant
1,disrupting interaction,V1153A

# Variants of: B1
# Details: with dlg1_human DLG1, Q12959
# Sequence of dlg1_human DLG1, Q12959 (Q12959 whole entry, looked up): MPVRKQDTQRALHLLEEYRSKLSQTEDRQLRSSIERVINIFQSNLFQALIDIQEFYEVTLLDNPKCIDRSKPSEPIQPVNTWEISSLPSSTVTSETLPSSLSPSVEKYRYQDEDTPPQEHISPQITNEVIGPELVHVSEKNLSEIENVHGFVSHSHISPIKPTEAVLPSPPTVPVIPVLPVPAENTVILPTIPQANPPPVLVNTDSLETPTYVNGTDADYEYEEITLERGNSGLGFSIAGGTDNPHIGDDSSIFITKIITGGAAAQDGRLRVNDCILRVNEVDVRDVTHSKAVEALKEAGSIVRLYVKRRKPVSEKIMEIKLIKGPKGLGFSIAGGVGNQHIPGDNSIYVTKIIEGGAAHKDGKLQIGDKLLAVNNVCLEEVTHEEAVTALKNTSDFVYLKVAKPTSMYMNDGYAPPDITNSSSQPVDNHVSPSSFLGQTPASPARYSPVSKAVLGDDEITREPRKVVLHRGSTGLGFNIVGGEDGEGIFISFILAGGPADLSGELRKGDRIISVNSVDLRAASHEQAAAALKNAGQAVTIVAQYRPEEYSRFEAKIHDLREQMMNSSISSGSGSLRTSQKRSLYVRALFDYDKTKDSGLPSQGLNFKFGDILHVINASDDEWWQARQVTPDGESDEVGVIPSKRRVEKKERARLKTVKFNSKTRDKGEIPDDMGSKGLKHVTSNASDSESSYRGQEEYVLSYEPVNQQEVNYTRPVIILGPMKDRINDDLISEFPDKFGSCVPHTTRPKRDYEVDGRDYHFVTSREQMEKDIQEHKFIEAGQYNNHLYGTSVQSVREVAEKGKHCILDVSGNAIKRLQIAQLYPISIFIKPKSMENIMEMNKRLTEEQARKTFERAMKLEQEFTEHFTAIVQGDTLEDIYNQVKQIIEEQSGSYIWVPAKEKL
row,effect of a mutation on the interaction,Variant
1,decreasing interaction,V1153A

# Variants of: B1
# Details: with dlg2_rat Dlg2, Q63622
row,effect of a mutation on the interaction,Variant
1,disrupting interaction,V1153A

# Variants of: B1
# Details: with magi1_human MAGI1, Q96QZ7
# Sequence of magi1_human MAGI1, Q96QZ7 (Q96QZ7 whole entry): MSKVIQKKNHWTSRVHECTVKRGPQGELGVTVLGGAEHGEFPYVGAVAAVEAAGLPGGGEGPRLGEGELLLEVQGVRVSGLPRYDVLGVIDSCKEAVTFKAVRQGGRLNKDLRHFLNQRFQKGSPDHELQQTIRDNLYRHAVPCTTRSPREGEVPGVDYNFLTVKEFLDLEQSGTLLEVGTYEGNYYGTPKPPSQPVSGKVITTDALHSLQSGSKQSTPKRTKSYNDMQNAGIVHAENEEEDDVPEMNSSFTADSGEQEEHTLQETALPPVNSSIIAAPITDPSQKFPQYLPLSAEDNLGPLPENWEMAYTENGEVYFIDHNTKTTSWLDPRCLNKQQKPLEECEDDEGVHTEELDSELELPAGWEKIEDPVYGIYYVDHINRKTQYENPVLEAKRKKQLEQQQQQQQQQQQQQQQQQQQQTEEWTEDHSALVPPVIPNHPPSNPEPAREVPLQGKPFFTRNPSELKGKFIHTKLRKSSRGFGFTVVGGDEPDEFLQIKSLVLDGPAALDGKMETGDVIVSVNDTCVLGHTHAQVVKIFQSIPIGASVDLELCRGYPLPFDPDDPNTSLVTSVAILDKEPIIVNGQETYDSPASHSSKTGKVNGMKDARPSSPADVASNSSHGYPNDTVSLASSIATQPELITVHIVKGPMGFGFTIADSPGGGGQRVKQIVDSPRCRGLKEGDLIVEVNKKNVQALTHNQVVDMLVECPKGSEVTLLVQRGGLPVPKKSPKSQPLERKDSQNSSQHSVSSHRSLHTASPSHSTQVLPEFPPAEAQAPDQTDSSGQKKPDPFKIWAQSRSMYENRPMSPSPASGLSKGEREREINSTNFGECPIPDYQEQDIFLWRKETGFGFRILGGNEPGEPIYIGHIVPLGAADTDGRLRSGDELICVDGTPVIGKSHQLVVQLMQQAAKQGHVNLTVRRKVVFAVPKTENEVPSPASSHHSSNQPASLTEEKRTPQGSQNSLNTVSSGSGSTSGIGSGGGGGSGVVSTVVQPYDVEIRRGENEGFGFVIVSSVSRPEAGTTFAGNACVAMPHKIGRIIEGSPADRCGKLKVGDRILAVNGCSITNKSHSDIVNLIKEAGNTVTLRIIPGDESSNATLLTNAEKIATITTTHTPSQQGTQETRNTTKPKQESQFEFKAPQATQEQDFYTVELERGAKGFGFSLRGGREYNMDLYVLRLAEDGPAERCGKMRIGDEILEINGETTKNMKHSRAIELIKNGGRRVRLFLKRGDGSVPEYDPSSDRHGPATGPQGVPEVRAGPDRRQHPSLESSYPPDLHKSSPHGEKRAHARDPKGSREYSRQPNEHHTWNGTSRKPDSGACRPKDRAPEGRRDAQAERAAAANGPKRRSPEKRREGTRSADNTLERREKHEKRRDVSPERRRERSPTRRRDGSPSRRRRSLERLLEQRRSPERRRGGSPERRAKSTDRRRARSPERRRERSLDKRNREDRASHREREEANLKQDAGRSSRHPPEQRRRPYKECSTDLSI
row,effect of a mutation on the interaction,Variant
1,disrupting interaction,V1153A
